Laboratory results from article PMC6982540.

Biological target: His-PTP1B (residues 1–321), reversibly oxidized and phosphorylated on Ser50 (UniProt P18031)
Test: SPR

Sequence of UniProt P18031 (P18031 1-321): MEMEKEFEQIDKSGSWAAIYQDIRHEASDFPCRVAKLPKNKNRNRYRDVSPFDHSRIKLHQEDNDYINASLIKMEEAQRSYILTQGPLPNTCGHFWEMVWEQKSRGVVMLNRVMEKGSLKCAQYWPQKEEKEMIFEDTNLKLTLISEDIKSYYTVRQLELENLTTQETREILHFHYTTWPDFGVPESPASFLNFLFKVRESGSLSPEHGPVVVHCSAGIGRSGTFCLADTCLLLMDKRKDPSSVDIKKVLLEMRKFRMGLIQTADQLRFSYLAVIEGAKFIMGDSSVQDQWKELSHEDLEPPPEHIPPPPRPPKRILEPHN

koff: 0.00458 s⁻¹
Substance: GST-14-3-3-ζ (from UniProt P63104 1-245) (natural protein)
